Experiments:
Test in all cases: two-hybrid library CCmax;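 note: natural log of median RNA to DNA barcode read ratio; higher means stronger binding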
4H2883-AA = molecular target: T1, 4H2883-AA; conditions: mean of both orientations
T1 chain: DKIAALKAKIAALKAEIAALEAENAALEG

4H1352-AA = molecular target: T2, 4H1352-AA
T2 chain: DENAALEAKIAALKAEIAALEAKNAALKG

4H342-AA = molecular target: T3, 4H342-AA; conditions: mean of both orientations
T3 chain: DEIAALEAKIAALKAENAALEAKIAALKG

4H3627-AA = molecular target: T4, 4H3627-AA; conditions: mean of both orientations
T4 chain: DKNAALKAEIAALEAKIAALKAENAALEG

4H317-AA = molecular target: T5, 4H317-AA; conditions: mean of both orientations
T5 chain: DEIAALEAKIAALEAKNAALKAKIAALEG

4H881-AA = molecular target: T6, 4H881-AA; conditions: mean of both orientations
T6 chain: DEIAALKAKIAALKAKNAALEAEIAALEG

4H3606-AA = molecular target: T7, 4H3606-AA; conditions: mean of both orientations
T7 chain: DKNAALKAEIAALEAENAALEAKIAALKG

Q8-AA = molecular target: T8, Q8-AA; conditions: mean of both orientations
T8 chain: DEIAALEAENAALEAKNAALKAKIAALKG

4H605-AA = molecular target: T9, 4H605-AA; conditions: mean of both orientations
T9 chain: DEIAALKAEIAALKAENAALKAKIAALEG

4H678-AA = molecular target: T10, 4H678-AA
T10 chain: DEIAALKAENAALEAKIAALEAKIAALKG

4H234-AA = molecular target: T11, 4H234-AA; conditions: mean of both orientations
T11 chain: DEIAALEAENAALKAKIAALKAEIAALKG

4H2151-AA = molecular target: T12, 4H2151-AA; conditions: mean of both orientations
T12 chain: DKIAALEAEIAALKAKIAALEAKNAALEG

4H2617-AA = molecular target: T13, 4H2617-AA; conditions: mean of both orientations
T13 chain: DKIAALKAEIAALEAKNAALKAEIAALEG

4H1552-AA = molecular target: T14, 4H1552-AA; conditions: mean of both orientations
T14 chain: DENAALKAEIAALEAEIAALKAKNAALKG

4H335-AA = molecular target: T15, 4H335-AA; conditions: mean of both orientations
T15 chain: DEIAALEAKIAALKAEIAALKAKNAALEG

4H2729-AA = molecular target: T16, 4H2729-AA; conditions: mean of both orientations
T16 chain: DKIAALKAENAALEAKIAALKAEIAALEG

4H2642-AA = molecular target: T17, 4H2642-AA; conditions: mean of both orientations
T17 chain: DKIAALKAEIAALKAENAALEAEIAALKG

4H3112-AA = molecular target: T18, 4H3112-AA; conditions: mean of both orientations
T18 chain: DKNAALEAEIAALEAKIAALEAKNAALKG

4H780-AA = molecular target: T19, 4H780-AA; conditions: mean of both orientations
T19 chain: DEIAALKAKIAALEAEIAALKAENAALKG

4H1401-AA = molecular target: T20, 4H1401-AA; conditions: mean of both orientations
T20 chain: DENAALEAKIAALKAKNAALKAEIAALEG

4H794-AA = molecular target: T21, 4H794-AA; conditions: mean of both orientations
T21 chain: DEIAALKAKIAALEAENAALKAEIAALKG

4H1513-AA = molecular target: T22, 4H1513-AA; conditions: mean of both orientations
T22 chain: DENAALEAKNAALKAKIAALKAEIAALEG

4H3655-AA = molecular target: T23, 4H3655-AA; conditions: mean of both orientations
T23 chain: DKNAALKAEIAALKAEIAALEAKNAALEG

Q3-AA = molecular target: T24, Q3-AA; conditions: mean of both orientations
T24 chain: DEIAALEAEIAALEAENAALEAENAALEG

4H3844-AA = molecular target: T25, 4H3844-AA
T25 chain: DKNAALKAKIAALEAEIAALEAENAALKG

4H993-AA = molecular target: T26, 4H993-AA; conditions: mean of both orientations
T26 chain: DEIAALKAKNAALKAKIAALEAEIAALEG

4H2078-AA = molecular target: T27, 4H2078-AA; conditions: mean of both orientations
T27 chain: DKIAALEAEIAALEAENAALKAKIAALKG

4H2837-AA = molecular target: T28, 4H2837-AA; conditions: mean of both orientations
T28 chain: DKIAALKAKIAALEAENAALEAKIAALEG

4H2165-AA = molecular target: T29, 4H2165-AA; conditions: mean of both orientations
T29 chain: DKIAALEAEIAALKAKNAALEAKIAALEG

4H1867-AA = molecular target: T30, 4H1867-AA; conditions: mean of both orientations
T30 chain: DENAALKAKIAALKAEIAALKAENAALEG

4H717-AA = molecular target: T31, 4H717-AA; conditions: mean of both orientations
T31 chain: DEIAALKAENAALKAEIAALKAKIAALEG

4H2505-AA = molecular target: T32, 4H2505-AA; conditions: mean of both orientations
T32 chain: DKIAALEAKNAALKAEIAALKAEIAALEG

4H2393-AA = molecular target: T33, 4H2393-AA; conditions: mean of both orientations
T33 chain: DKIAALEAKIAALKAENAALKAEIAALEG

4H429-AA = molecular target: T34, 4H429-AA; conditions: mean of both orientations
T34 chain: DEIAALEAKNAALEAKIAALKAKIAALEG

4H2575-AA = molecular target: T35, 4H2575-AA; conditions: mean of both orientations
T35 chain: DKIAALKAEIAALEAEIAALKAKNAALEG

4H2944-AA = molecular target: T36, 4H2944-AA; conditions: mean of both orientations
T36 chain: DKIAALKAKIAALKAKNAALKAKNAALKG

4H2754-AA = molecular target: T37, 4H2754-AA; conditions: mean of both orientations
T37 chain: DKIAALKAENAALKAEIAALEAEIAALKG

4H454-AA = molecular target: T38, 4H454-AA; conditions: mean of both orientations
T38 chain: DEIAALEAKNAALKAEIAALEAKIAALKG

4H2354-AA = molecular target: T39, 4H2354-AA; conditions: mean of both orientations
T39 chain: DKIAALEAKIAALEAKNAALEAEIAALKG

4H3427-AA = molecular target: T40, 4H3427-AA; conditions: mean of both orientations
T40 chain: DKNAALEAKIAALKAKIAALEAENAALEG

4H3921-AA = molecular target: T41, 4H3921-AA; conditions: mean of both orientations
T41 chain: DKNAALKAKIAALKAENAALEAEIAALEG

4H2277-AA = molecular target: T42, 4H2277-AA; conditions: mean of both orientations
T42 chain: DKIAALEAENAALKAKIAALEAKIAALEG

4H48-AA = molecular target: T43, 4H48-AA; conditions: mean of both orientations
T43 chain: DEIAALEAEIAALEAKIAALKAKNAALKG

Q7-AA = molecular target: T44, Q7-AA; conditions: mean of both orientations
T44 chain: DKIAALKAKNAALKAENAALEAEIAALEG

4H3343-AA = molecular target: T45, 4H3343-AA; conditions: mean of both orientations
T45 chain: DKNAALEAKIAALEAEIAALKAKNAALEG

4H1636-AA = molecular target: T46, 4H1636-AA; conditions: mean of both orientations
T46 chain: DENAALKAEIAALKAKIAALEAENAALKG

4H3718-AA = molecular target: T47, 4H3718-AA; conditions: mean of both orientations
T47 chain: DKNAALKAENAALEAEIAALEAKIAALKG

4H2466-AA = molecular target: T48, 4H2466-AA; conditions: mean of both orientations
T48 chain: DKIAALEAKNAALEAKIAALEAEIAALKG

4H566-AA = molecular target: T49, 4H566-AA; conditions: mean of both orientations
T49 chain: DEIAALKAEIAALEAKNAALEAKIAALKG

4H906-AA = molecular target: T50, 4H906-AA; conditions: mean of both orientations
T50 chain: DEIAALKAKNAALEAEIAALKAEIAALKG

4H2949-AA = molecular target: T51, 4H2949-AA; conditions: mean of both orientations
T51 chain: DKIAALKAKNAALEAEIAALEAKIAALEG

4H2190-AA = molecular target: T52, 4H2190-AA; conditions: mean of both orientations
T52 chain: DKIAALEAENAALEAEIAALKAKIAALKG

interaction score (4H2883-AA): 0.183
interaction score (4H1352-AA): 1.38
interaction score (4H342-AA): 1.49
interaction score (4H3627-AA): 2.33
interaction score (4H317-AA): -0.919
interaction score (4H881-AA): -0.885
interaction score (4H3606-AA): -0.743
interaction score (Q8-AA): -1.22
interaction score (4H605-AA): -1.5
interaction score (4H678-AA): -0.653
interaction score (4H234-AA): -1.3
interaction score (4H2151-AA): -0.65
interaction score (4H2617-AA): 0.197
interaction score (4H1552-AA): 1.47
interaction score (4H335-AA): 0.334
interaction score (4H2729-AA): 0.0997
interaction score (4H2642-AA): -1.13
interaction score (4H3112-AA): 1.11
interaction score (4H780-AA): -1.6
interaction score (4H1401-AA): -1.64
interaction score (4H794-AA): -1.64
interaction score (4H1513-AA): -0.469
interaction score (4H3655-AA): 0.863
interaction score (Q3-AA): -0.583
interaction score (4H3844-AA): 1.93
interaction score (4H993-AA): -0.427
interaction score (4H2078-AA): -1.18
interaction score (4H2837-AA): -0.514
interaction score (4H2165-AA): -1.51
interaction score (4H1867-AA): 0.645
interaction score (4H717-AA): -1.46
interaction score (4H2505-AA): -0.788
interaction score (4H2393-AA): -1.01
interaction score (4H429-AA): -0.813
interaction score (4H2575-AA): 1.45
interaction score (4H2944-AA): -0.752
interaction score (4H2754-AA): -0.982
interaction score (4H454-AA): 1.39
interaction score (4H2354-AA): -1.74
interaction score (4H3427-AA): 0.842
interaction score (4H3921-AA): -1.28
interaction score (4H2277-AA): -1.27
interaction score (4H48-AA): -0.096
interaction score (Q7-AA): -1.38
interaction score (4H3343-AA): -0.188
interaction score (4H1636-AA): -1.13
interaction score (4H3718-AA): 0.714
interaction score (4H2466-AA): -1.34
interaction score (4H566-AA): -1.51
interaction score (4H906-AA): -1.39
interaction score (4H2949-AA): -0.999
interaction score (4H2190-AA): -1.16
B1: 4H1352-AA (peptide)
chain: DENAALEAKIAALKAEIAALEAKNAALKG

Reference: paper PMC10397247
